Experimental findings from US20250197451A1, “USE OF BIOACTIVE POLYPEPTIDE SYNTHESIZED ON BASIS OF KDM2B SEQUENCE IN NEURAL DIFFERENTIATION AND REGENERATION AND REPAIR OF MESENCHYMAL STEM CELLS” (CAPITAL MEDICAL UNIVERSITY SCHOOL OF STOMATOLOGY, priority 2021, published 2025) are described below.

B1: peptide 98 (peptide)
peptide: LAVDYPKTPTGSPAT
B2: peptide 69 (peptide)
peptide: IYEIEDRTRVQPKFR
B3: peptide 130 (peptide)
peptide: CIMRQCIAPVLPHTA
B4: peptide 74 (peptide)
peptide: VLERYVYCVTQRSHL
B5: peptide 71 (peptide)
peptide: QPKFRYPFYYEMCWY

Sequence of biotin-labelled EZH2 protein (Q15910 whole entry): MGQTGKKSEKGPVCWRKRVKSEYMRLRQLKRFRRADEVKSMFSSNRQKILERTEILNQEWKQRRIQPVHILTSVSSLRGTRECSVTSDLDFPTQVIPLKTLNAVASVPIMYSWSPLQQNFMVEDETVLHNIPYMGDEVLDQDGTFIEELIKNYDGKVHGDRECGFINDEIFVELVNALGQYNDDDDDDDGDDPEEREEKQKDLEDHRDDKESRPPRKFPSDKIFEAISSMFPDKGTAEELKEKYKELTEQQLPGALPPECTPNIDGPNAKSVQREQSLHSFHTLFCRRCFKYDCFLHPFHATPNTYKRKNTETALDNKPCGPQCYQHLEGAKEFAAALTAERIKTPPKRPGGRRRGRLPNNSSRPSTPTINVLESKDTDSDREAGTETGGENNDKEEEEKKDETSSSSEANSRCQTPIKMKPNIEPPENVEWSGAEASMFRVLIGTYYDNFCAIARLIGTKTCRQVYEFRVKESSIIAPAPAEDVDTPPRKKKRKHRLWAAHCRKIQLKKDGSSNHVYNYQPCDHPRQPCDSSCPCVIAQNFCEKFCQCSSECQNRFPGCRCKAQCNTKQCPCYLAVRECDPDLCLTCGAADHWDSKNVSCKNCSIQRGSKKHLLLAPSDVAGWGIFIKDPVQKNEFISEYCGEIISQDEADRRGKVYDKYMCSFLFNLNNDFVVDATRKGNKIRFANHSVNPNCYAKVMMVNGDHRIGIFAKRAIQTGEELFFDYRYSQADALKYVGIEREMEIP

The experiment addresses biotin-labelled EZH2 protein (UniProt Q15910). The experiment is described as follows: KDM2B peptide array probed with biotin-EZH2 1 ug/ml, SA-HRP/ECL.
B1 registered an Intensity (%) of 0.77%.

B2 gave an Intensity (%) of 0.15%.

B3 showed an Intensity (%) of 30.8%. Molecule B4 displayed an Intensity (%) of 0.25%. Molecule B5 showed an Intensity (%) of 0.57%.
